Measurements from article PMC11275975, “Structural basis for transcription activation through cooperative recruitment of MntR” (Research Square, 2024).

Target: the molecule itself
Experiment: mass photometry; MntR alone, in the presence of 1 mM Mn2+; single peak; monomers to dimer

B1: manganese transport regulator (MntR) from B. subtilis, wild type (natural protein)
chain: MTTPSMEDYIEQIYMLIEEKGYARVSDIAEALAVHPSSVTKMVQKLDKDEYLIYEKYRGLVLTSKGKKIGKRLVYRHELLEQFLRIIGVDEEKIYNDVEGIEHHLSWNSIDRIGDLVQYFEEDDARKKDLKSIQKKTEHHNQ
notes: MntR, manganese transport regulator, Bacillus subtilis; dimer of 142-residue subunits; the cryo-EM maps show residues 3-142; Expressed from the pSMT3 vector as a His6-SUMO fusion; the tag was cut off with ULP-1; Assayed with 1 mM Mn2+ (two Mn2+ ions per subunit); also called WT MntR; MntR2 (dimer); source: E. coli BL21(DE3)NiCo, purified (TALON, ULP-1 cleavage, Ni-NTA)
Question: How did the “stoichiometry N” value turn out when B1 was run?
Answer: 2
